Results published in patent publication US20200292555.

Biological target: T1, Ac-DEVD-CHO
T1 chain: DEVD

B1: recombinant, purified active CASP10 (protein)
chain: VKTFLEALPQESWQNKHAGSNGNRATNGAPSLVSRGMQGASANTLNSETSTKRAAVYRMNRNHRGLCVIVNNHSFTSLKDRQGTHKDAEILSHVFQWLGFTVHIHNNVTKVEMEMVLQKQKCNPAHADGDCFVFCILTHGRFGAVYSSDEALIPIREIMSHFTALQCPRLAEKPKLFFIQACQGEEIQPSVSIEADALNPEQAPTSLQDSIPAEADFLLGLATVPGYVSFRHVEEGSWYIQSLCNHLKKLVPRMLKFLEKTMEIRGRKRTVWGAKQISATSLPTAISAQTPRPPMRRWSSVS
activity of recombinant, purified active CASP10 (500 nM; fluorometric AEVD-AMC substrate in MDA-MB-231 lysate): DEVD-CHO ... (20 µM) inhibited the activity of CASP10
